# Test system: ABD-B homeodomain (ABD-B HD) (Drosophila)
# Assay: EMSA
substance,measurement,value
abd-A probe,Kd,5.48 nM
